# According to paper PMC5120205:
# What was measured:
# D2-14-N1 (human) = assay: SPR
# D3-23-N1 = assay: ELISA
# D2-14-N1 = assay: ELISA
# D3-03-N1 = assay: ELISA
# D3-24-N1 = assay: ELISA
# D3-12-N1 = assay: ELISA
# D1-10-N1 = assay: ELISA
# D2-14-N1 (human), sequence (heavy, as listed by the source): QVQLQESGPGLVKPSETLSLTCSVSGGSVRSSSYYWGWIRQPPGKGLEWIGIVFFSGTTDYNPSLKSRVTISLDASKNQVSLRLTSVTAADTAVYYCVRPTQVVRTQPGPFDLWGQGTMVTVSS
Kd (D2-14-N1 (human)) [pM],Substance,percent of parent (D3-23-N1) [%],percent of parent (D2-14-N1) [%],percent of parent (D3-03-N1) [%],percent of parent (D3-24-N1) [%],percent of parent (D3-12-N1) [%],percent of parent (D1-10-N1) [%]
4 to 12,recombinant full-length IsdB (natural protein),–,–,–,–,–,–
–,recombinant full-length IsdB (from UniProt Q2FHV2) Y165R,3,3,3,5,3,3
